# Laboratory results: patent US20230212319A1, “NOVEL ANTIGEN BINDING DOMAINS AND SYNTHETIC ANTIGEN RECEPTORS INCORPORATING THE SAME” (University of Southern California, priority 2020, published 2023)
# B1: 9694 (protein)
# chain: MALPVTALLLPLALLLHAARPDIVMTQSHKFMSTSVGDRVSIICKASQDVGTAVDWYQQKPGQSPKLLIYWASTRHTGVPDRFTGSGSGTDFTLAITNVQSEDLADYFCQQYNSYPLTFGAGTKLEIKRLEDLKNVFPPEVAVFEPSEAEISHTQKATLVCLATGFYPDHVELSWWVNGKEVHSGVCTDPQPLKEQPALNDSRYCLSSRLRVSATFWQNPRNHFRCQVQFYGLSENDEWTQDRAKPVTQIVSAEAWGRADCGFTSESYQQGVLSATILYEILLGKATLYAVLVSALVLMAMVKRKDSRGRAKRSGSGATNFSLLKQAGDVEENPGPTSMDWIWRILFLVGAATGAHSFEEVQLQQSGPELVKPGTSVRISCKTSGYTFTEYTIHWVKQSHGKSLEWIGNINPNNGGTTYNQKFEDKATLTVDKSSSTAYMELRSLTSEDSAVYYCAAGWNFDYWGQGTTLTVSSTRIQNPDPAVYQLRDSKSSDKSVCLFTDFDSQTNVSQSKDSDVYITDKCVLDMRSMDFKSNSAVAWSNKSDFACANAFNNSIIPEDTFFPSPESSCDVKLVEKSFETDTNLNFQNLSVIGFRILLLKVAGFNLLMTLRLWSS
# modifications: Synthetic Polynucloetide
# B2: 9832 (protein)
# chain: MALPVTALLLPLALLLHAARPDIQMTQSPSSLSASVGDRVTITCKASQDVGTAVDWYQQKPGKAPKLLISWASTRHTGVPSRFSGSGSGTDFTLTISSLQPEDFATYFCQQYNSYPLTFGQGTKVEIKRTVLEDLKNVFPPEVAVFEPSEAEISHTQKATLVCLATGFYPDHVELSWWVNGKEVHSGVCTDPQPLKEQPALNDSRYCLSSRLRVSATFWQNPRNHFRCQVQFYGLSENDEWTQDRAKPVTQIVSAEAWGRADCGFTSESYQQGVLSATILYEILLGKATLYAVLVSALVLMAMVKRKDSRGRAKRSGSGATNFSLLKQAGDVEENPGPTSMDWIWRILFLVGAATGAHSFEQVQLVQSGAEVKKPGESVKVSCKASGYTFTEYTIHWVRQAPGQGLEWMGNINPNNGGTTYNQKFEDRVTITADKSTSTAYMELSSLRSEDTAVYYCARGWNFDYWGQGTTVTVSSTRIQNPDPAVYQLRDSKSSDKSVCLFTDFDSQTNVSQSKDSDVYITDKCVLDMRSMDFKSNSAVAWSNKSDFACANAFNNSIIPEDTFFPSPESSCDVKLVEKSFETDTNLNFQNLSVIGFRILLLKVAGFNLLMTLRLWSS
# modifications: Synthetic Polynucloetide
# B3: 22225 (protein)
# chain: MALPVTALLLPLALLLHAARPDIQMTQSPSSLSASVGDRVTITCKASDHINNWLAWYQQKPGQAPKLLIYGATTLETGVPSRFSGSGSGTDYTLTISSLQPEDFATYYCQQSWNTPWTFGQGTKLEIKRLEDLKNVFPPEVAVFEPSEAEISHTQKATLVCLATGFYPDHVELSWWVNGKEVHSGVCTDPQPLKEQPALNDSRYCLSSRLRVSATFWQNPRNHFRCQVQFYGLSENDEWTQDRAKPVTQIVSAEAWGRADCGFTSESYQQGVLSATILYEILLGKATLYAVLVSALVLMAMVKRKDSRGRAKRSGSGATNFSLLKQAGDVEENPGPTSATMDWIWRILFLVGAATGAHSGPEVQLVESGGGLVQAGGSLRLSCAASGRTFTMGWFRQAPGKEREFVAAISLSPTLAYYADSVKGRFTISRDNAKNTVVLQMNSLKPEDTALYYCAADRKSVMSIRPDYWGQGTQVTVSSGSGPLGIAGIFEQVQLQQPGAELVKPGASVKMSCKASGYAFSSYWINWMKQKPGQGLEWIGQIYPGDGDTNYNGKFKGRATLTADTSSSTAYMQLSSLTSEDSAVYFCARSITTVVGCAMDYWGQGTSVTVSSTRIQNPDPAVYQLRDSKSSDKSVCLFTDFDSQTNVSQSKDSDVYITDKCVLDMRSMDFKSNSAVAWSNKSDFACANAFNNSIIPEDTFFPSPESSCDVKLVEKSFETDTNLNFQNLSVIGFRILLLKVAGFNLLMTLRLWSSRAKRSGSGVKQTLNFDLLKLAGDVESNPGPSRGHMTEYKPTVRLATRDDVPRAVRTLAAAFADYPATRHTVDPDRHIERVTELQELFLTRVGLDIGKVWVADDGAAVAVWTTPESVEAGAVFAEIGPRMAELSGSRLAAQQQMEGLLAPHRPKEPAWFLATVGVSPDHQGKGLGSAVVLPGVEAAERAGVPAFLETSAPRNLPFYERLGFTVTADVEVPEGPRTWCMTRKPGA
# B4: 22250 (protein)
# chain: B3 chain
# B5: 9763 (protein)
# chain: MALPVTALLLPLALLLHAARPDIQMTQSPSSLSASVGDRVTITCKASQDVGTAVDWYQQKPGKAPKLLIYWASTRHTGVPSRFSGSGSGTDFTLTISSLQPEDFATYYCQQYNSYPLTFGQGTKVEIKRLEDLKNVFPPEVAVFEPSEAEISHTQKATLVCLATGFYPDHVELSWWVNGKEVHSGVCTDPQPLKEQPALNDSRYCLSSRLRVSATFWQNPRNHFRCQVQFYGLSENDEWTQDRAKPVTQIVSAEAWGRADCGFTSESYQQGVLSATILYEILLGKATLYAVLVSALVLMAMVKRKDSRGRAKRSGSGATNFSLLKQAGDVEENPGPTSMDWIWRILFLVGAATGAHSFEEVQLVESGGGLVQPGGSLRLSCAASGYTFTEYTIHWVRQAPGKGLEWVANINPNNGGTTYNQKFEDRFTISRDNSKNTLYLQMNSLRAEDTAVYYCARGWNFDYWGQGTLVTVSSTRIQNPDPAVYQLRDSKSSDKSVCLFTDFDSQTNVSQSKDSDVYITDKCVLDMRSMDFKSNSAVAWSNKSDFACANAFNNSIIPEDTFFPSPESSCDVKLVEKSFETDTNLNFQNLSVIGFRILLLKVAGFNLLMTLRLWSS
# modifications: Synthetic Polynucloetide
# B6: 22249 (protein)
# chain: MALPVTALLLPLALLLHAARPDIQMTQSPSSLSASVGDRVTITCKASDHINNWLAWYQQKPGQAPKLLIYGATTLETGVPSRFSGSGSGTDYTLTISSLQPEDFATYYCQQSWNTPWTFGQGTKLEIKRLEDLKNVFPPEVAVFEPSEAEISHTQKATLVCLATGFYPDHVELSWWVNGKEVHSGVCTDPQPLKEQPALNDSRYCLSSRLRVSATFWQNPRNHFRCQVQFYGLSENDEWTQDRAKPVTQIVSAEAWGRADCGFTSESYQQGVLSATILYEILLGKATLYAVLVSALVLMAMVKRKDSRGRAKRSGSGATNFSLLKQAGDVEENPGPTSATMDWIWRILFLVGAATGAHSGPEVQLVESGGGLVQAGGSLRLSCAASGRTFTMGWFRQAPGKEREFVAAISLSPTLAYYADSVKGRFTISRDNAKNTVVLQMNSLKPEDTALYYCAADRKSVMSIRPDYWGQGTQVTVSSGSALRRLLGLFGFEQVQLQQPGAELVKPGASVKMSCKASGYAFSSYWINWMKQKPGQGLEWIGQIYPGDGDTNYNGKFKGRATLTADTSSSTAYMQLSSLTSEDSAVYFCARSITTVVGCAMDYWGQGTSVTVSSTRIQNPDPAVYQLRDSKSSDKSVCLFTDFDSQTNVSQSKDSDVYITDKCVLDMRSMDFKSNSAVAWSNKSDFACANAFNNSIIPEDTFFPSPESSCDVKLVEKSFETDTNLNFQNLSVIGFRILLLKVAGFNLLMTLRLWSSRAKRSGSGVKQTLNFDLLKLAGDVESNPGPSRGHMTEYKPTVRLATRDDVPRAVRTLAAAFADYPATRHTVDPDRHIERVTELQELFLTRVGLDIGKVWVADDGAAVAVWTTPESVEAGAVFAEIGPRMAELSGSRLAAQQQMEGLLAPHRPKEPAWFLATVGVSPDHQGKGLGSAVVLPGVEAAERAGVPAFLETSAPRNLPFYERLGFTVTADVEVPEGPRTWCMTRKPGA
# What was measured:
# LNCaP-LucPPe cells = assay: LNCaP-LucPPE xenograft in NSG mice, with rechallenge; type: in vivo; details: for tumor control (bioluminescence imaging, caliper tumor volume), LNCaP-LucPPE xenograft: 1 × 10^6 LNCaP-LucPPe s.c., 17 days later 3 × 10^6 T cells i.v., male NSG mice; for survival, LNCaP-LucPPE xenograft: mouse, in vivo
# L363 cells = assay: JNG assay, co-culture with L363 cells; type: cell-based; details: co-culture with L363
# Procedure, shortened: (§1)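 Jurkat NFAT-GFP (JNG) cells stably transduced with SARs by lentivirus, with drug selection where the construct carried a resistance gene, then co-cultured with target cells at E:T ~1:2 for ~4–18 h. % GFP-positive cells measured by FACS against parental JNG; +/- to 5+ correspond to ~5–50% GFP-positive.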
# Nalm6 cells = assay: JNG assay, co-culture with Nalm6 cells; type: cell-based; details: co-culture with Nalm6
# Procedure, shortened: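 Values are semi-quantitative grades of GFP induction, each step approximating 10% more GFP+ cells (5+ ≈50%) above parental reporter cells, measured by FACS after SAR-transduced JNG cells were cultured with targets at ~1:2 E:T for ~4–18 h.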
# RS;411 = assay: JNG assay, co-culture with RS;411 cells; type: cell-based; details: co-culture with RS411
# Procedure, shortened: as §1
# U266 cells = assay: JNG NFAT-GFP induction on co-culture with U266; type: cell-based
# RAJI-CD19-KO cells = assay: JNG assay, co-culture with RAJI-CD19-KO cells; type: cell-based; details: co-culture with Raji-CD19-KO
# Procedure, shortened: as §1
# RAJI cells = assay: JNG assay, co-culture with RAJI cells; type: cell-based; details: JNG cells expressing construct, co-culture with Raji
# Procedure, shortened: as §1
molecule,measurement,setting,value
B1,"tumor control (bioluminescence imaging, caliper tumor volume), LNCaP-LucPPE xenograft",LNCaP-LucPPe cells,effective control of tumor
same,"survival, LNCaP-LucPPE xenograft",LNCaP-LucPPe cells,improvement in survival
B2,"tumor control (bioluminescence imaging, caliper tumor volume), LNCaP-LucPPE xenograft",LNCaP-LucPPe cells,effective control of tumor
same,"survival, LNCaP-LucPPE xenograft",LNCaP-LucPPe cells,improvement in survival
B3,NFAT-GFP ASSAY: L363,L363 cells,"3+ (refer to approximately 5%, 10%, 20%, 30%, 40% and 50% GFP positive cells)"
same,NFAT-GFP ASSAY: Nalm6,Nalm6 cells,"3+ (refer to approximately 5%, 10%, 20%, 30%, 40% and 50% GFP positive cells)"
same,NFAT-GFP ASSAY: RS411,RS;411,"2+ (refer to approximately 5%, 10%, 20%, 30%, 40% and 50% GFP positive cells)"
same,NFAT-GFP ASSAY: U266,U266 cells,"5+ (refer to approximately 5%, 10%, 20%, 30%, 40% and 50% GFP positive cells)"
same,NFAT-GFP ASSAY: Raji-CD19-KO,RAJI-CD19-KO cells,"4+ (refer to approximately 5%, 10%, 20%, 30%, 40% and 50% GFP positive cells)"
B4,NFAT-GFP ASSAY: L363,L363 cells,"3+ (refer to approximately 5%, 10%, 20%, 30%, 40% and 50% GFP positive cells)"
same,NFAT-GFP ASSAY: Nalm6,Nalm6 cells,"3+ (refer to approximately 5%, 10%, 20%, 30%, 40% and 50% GFP positive cells)"
same,NFAT-GFP ASSAY: RS411,RS;411,"2+ (refer to approximately 5%, 10%, 20%, 30%, 40% and 50% GFP positive cells)"
same,NFAT-GFP ASSAY: U266,U266 cells,"5+ (refer to approximately 5%, 10%, 20%, 30%, 40% and 50% GFP positive cells)"
same,NFAT-GFP ASSAY: Raji-CD19-KO,RAJI-CD19-KO cells,"4+ (refer to approximately 5%, 10%, 20%, 30%, 40% and 50% GFP positive cells)"
B5,"tumor control (bioluminescence imaging, caliper tumor volume), LNCaP-LucPPE xenograft",LNCaP-LucPPe cells,effective control of tumor
same,"survival, LNCaP-LucPPE xenograft",LNCaP-LucPPe cells,improvement in survival
B6,NFAT-GFP ASSAY: Raji,RAJI cells,"+ (refer to approximately 5%, 10%, 20%, 30%, 40% and 50% GFP positive cells)"
same,NFAT-GFP ASSAY: L363,L363 cells,"2+ (refer to approximately 5%, 10%, 20%, 30%, 40% and 50% GFP positive cells)"
same,NFAT-GFP ASSAY: RS411,RS;411,"+ (refer to approximately 5%, 10%, 20%, 30%, 40% and 50% GFP positive cells)"
same,NFAT-GFP ASSAY: U266,U266 cells,"4+ (refer to approximately 5%, 10%, 20%, 30%, 40% and 50% GFP positive cells)"
same,NFAT-GFP ASSAY: Raji-CD19-KO,RAJI-CD19-KO cells,"2+ (refer to approximately 5%, 10%, 20%, 30%, 40% and 50% GFP positive cells)"
